This note sets out measurements from US20240101959A1, “USE OF IL-2R-BETA-GAMMA AGONIST PEPTIDES IN CELL MANUFACTURING” (MEDIKINE, INC., priority 2022, published 2024).

This assay has as its target T1, hu-IL-2Rβ subunit (human, UniProt P14784 27-240, limits assumed).
T1 construct: also called human interleukin-2 receptor subunit β; CD122
T1 sequence (looked up): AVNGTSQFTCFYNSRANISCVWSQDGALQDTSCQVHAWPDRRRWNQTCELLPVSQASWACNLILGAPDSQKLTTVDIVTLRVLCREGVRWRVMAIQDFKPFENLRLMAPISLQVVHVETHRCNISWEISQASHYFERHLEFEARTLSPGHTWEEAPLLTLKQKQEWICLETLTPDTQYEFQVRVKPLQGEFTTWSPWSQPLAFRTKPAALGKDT
Nature of the assay: phage ELISA competition assay. (In general: In an ELISA, binding on a coated surface is turned into a signal by an enzyme label.)

Positions of bridges follow the written chain, without caps; N, C: chain ends. No end group written: not given here.

The molecule HGGVIGWYPCWMAKVGELCDLD (disulfide 10-19 (inferred)) [SEQ ID NO 358] returned an IC50 of less than 100 µM. SHLWFPCWMAQLGELCDLEGGP [SEQ ID NO 353] yielded an IC50 of less than 100 µM. For RSLRESWFPCWMAKLGDLCDLE [SEQ ID NO 365] the value was less than 100 µM. DIGYYPCWMAQVGDLCDLDDEK [SEQ ID NO 100] had an IC50 of less than 100 µM. In turn, TESWYPCWLANLGDLCDLEWSA [SEQ ID NO 378] displayed an IC50 of less than 100 µM. Molecule RWTQAQWYPCWLAQLGELCDLE [SEQ ID NO 402] registered a half-inhibitory concentration (IC50) of less than 100 µM. On to WWPCSIARLGQLCDLD [SEQ ID NO 394], for which the half-maximal inhibitory concentration (IC50) was less than 100 µM. The result for RVSYPCWLARLGELCDMDLEE [SEQ ID NO 377] reads less than 100 µM.

Molecule WHPCWLARVGDLCDLD [SEQ ID NO 366] displayed an IC50 of less than 100 µM. For WYPCWLAQLGELCDAE [SEQ ID NO 396] the value was less than 100 µM.

Molecule MNPVGTFYPCWIAKLGELCDLQ [SEQ ID NO 357] yielded an IC50 of less than 100 µM. In the case of SATWYPCFLANLGELCDLEQEN [SEQ ID NO 373], the IC50 is less than 100 µM. The result for WLPCWMADVGDLCDLD [SEQ ID NO 379] reads less than 100 µM; that for RQVPKQWYPCWMAALGELCDLE [SEQ ID NO 368], less than 100 µM; that for WLPCWMAHLGQLCDLDLPGKSM [SEQ ID NO 96], less than 100 µM. As to WYSCWIAQIGELCDLE [SEQ ID NO 356], the IC50 is less than 100 µM. As to RKHFYPCWMAQLGELCDLEGMP [SEQ ID NO 99], the IC50 is less than 100 µM.

For the molecule LSSKGWYPCWKARLGDLCDLE (disulfide 9-18 (inferred)) [SEQ ID NO 404], the IC50 was less than 100 µM. In the case of WHPCWMARLGELCDLD [SEQ ID NO 380], the 50% inhibitory concentration (IC50) was less than 100 µM.

ESKEPAFWPCWMAQLGDLCDLE [SEQ ID NO 364] came in with an IC50 of less than 100 µM. For RDIWWPCWVAQLGELCDLDDPQ [SEQ ID NO 372] the value was less than 100 µM.

For the molecule YWCWFARVGELCDLDDGGVPS [SEQ ID NO 355], the IC50 was less than 100 µM. For SGTGPAWYPCFLASLGQLCDLE [SEQ ID NO 383] the value was less than 100 µM. For RSGDKAFFPCWLAQLGDLCDLD [SEQ ID NO 375] the value was less than 100 µM; for WKPCWMALLGELCDLE [SEQ ID NO 397], less than 100 µM.

In the case of WLPCWRAQLGQLCDLD [SEQ ID NO 385], the 50% inhibitory concentration (IC50) was less than 100 µM.

Regarding RYPCWRAKLGELCDLD [SEQ ID NO 398], the IC50 is less than 100 µM. WYPCSIASLGELCDLE [SEQ ID NO 390] came in with an IC50 of less than 100 µM. The molecule FGAFYPCWKAQLGELCDLEPVT [SEQ ID NO 345] yielded an IC50 of less than 100 µM. As to ETLGSVWYPCWIASIGELCDLD [SEQ ID NO 349], the IC50 was less than 100 µM. The result for WYPCWLASLGEVCDLE [SEQ ID NO 393] reads less than 100 µM; that for ESEGRGWYPCWNALLGELCDLE (disulfide 10-19 (inferred)) [SEQ ID NO 401], less than 100 µM; that for SRSAGEYYPCWLAQLGELCDLA [SEQ ID NO 367], less than 100 µM.

Regarding KNGPKSWYPCWMAQVGDLCDLD [SEQ ID NO 382], the IC50 was less than 100 µM. For RWPWYPCEIARIGELCDLEQAN [SEQ ID NO 344] the value was less than 100 µM; for QVMRLWYPCWMAQLGELCDLE [SEQ ID NO 370], less than 100 µM; for WLPCWIARLGDLCDLE [SEQ ID NO 80], less than 100 µM.

For the molecule WLPCYMAQLGDLCDLE [SEQ ID NO 391], the IC50 was less than 100 µM.

Consider TGRWKPCWMAGLHELCDLEGFR [SEQ ID NO 98], for which the IC50 was less than 100 µM. The result for DMFTHRWYPCSMAKLGELCDLE [SEQ ID NO 405] reads less than 100 µM; that for WYPCSIALLGELCDLESVHEKS (disulfide 4-13 (inferred)) [SEQ ID NO 359], less than 100 µM. Regarding QGTKWHWNPCWMAQLGELCDLD [SEQ ID NO 381], the IC50 was less than 100 µM.

The molecule WYPCWLAKLGELCDLDRAEALP [SEQ ID NO 347] came in with an IC50 of less than 100 µM. In the case of LFPCWLAQLGELCDLE [SEQ ID NO 386], the IC50 was less than 100 µM. With DSDWWPCWMAQLGELCDLEDAR [SEQ ID NO 101], the IC50 was less than 100 µM. In turn, WFPCWLAQLGELCDKE [SEQ ID NO 351] yielded an IC50 of less than 100 µM. The molecule LHAGRWNPCWLAQLGELCDLE [SEQ ID NO 403] showed an IC50 of less than 100 µM. Consider LGSKRQWYPCWVAHLGELCDLE [SEQ ID NO 400], for which the IC50 was less than 100 µM.

For MYPCWIAHLGELCDLD [SEQ ID NO 389], the IC50 is less than 100 µM.

Regarding WLPCWMAHLGDLCDLE [SEQ ID NO 362], the IC50 is less than 100 µM. On to YAEWYPCWMARVGEVCDLEVTP [SEQ ID NO 374], for which the IC50 is less than 100 µM. Take EQRNRQWWPCWLARLGDLCDLD [SEQ ID NO 360]: the IC50 is less than 100 µM.

WYPCWMAQLGELCDLDEAPVQP [SEQ ID NO 371]: the IC50 was less than 100 µM.

In turn, RPSWAPCWLAQVGELCDLDHPE (disulfide 7-16 (inferred)) [SEQ ID NO 363] had an IC50 of less than 100 µM. GERWKPCWIAQLGELCDLDFNW [SEQ ID NO 102] returned an IC50 of less than 100 µM. For EGVFFPCWIARLGELCDLDHGL [SEQ ID NO 97] the value was less than 100 µM; for EEQSRGFLPCWMALLGELCDLD [SEQ ID NO 399], less than 100 µM; for HGRWFPCWMAQVGDLCDLEHSN [SEQ ID NO 346], less than 100 µM.

Molecule RRWLPCWMAHVGELCDLELGN [SEQ ID NO 354] displayed an IC50 of less than 100 µM.

Regarding WYSCWIAQLGELCDLDDMGDRV (disulfide 4-13 (inferred)) [SEQ ID NO 350], the IC50 was less than 100 µM.

VWFPCWFAQLGDLCDLDQDP [SEQ ID NO 348]: the IC50 is less than 100 µM.

A word on the IC50: it is the concentration at which inhibition is half-maximal. Low readings indicate greater potency, high ones weaker potency.
